Article PMC11585597

Experiments:
[1] = target: StrepII-∆N-term DERA (Chloroflexi bacterium GWB2_54_36); assay: pull-down + SEC
[2] = target: HIS-∆N-term DERA (deoxyribose 5-phosphate aldolase of the SPU6 BMC locus, N-terminal extension deleted) (Chloroflexi bacterium GWB2_54_36); assay: SEC

Row | Substance | stoichiometry N [1] | subunits of each protein in the complex [1] | stoichiometry N [2]
1 | HIS-RPI (ribose 5-phosphate isomerase B family protein of the SPU6 BMC locus, full length) (enzyme) | 1 | > 2 | 
2 | HIS-∆N-term DERA (deoxyribose 5-phosphate aldolase of the SPU6 BMC locus, N-terminal extension deleted) (domain or fragment) |  |  | 2
